# Measurements taken from US20130273053.
# Target: ST-pro-factor D-His (UniProt P00746)
# Sequence (P00746 21-253): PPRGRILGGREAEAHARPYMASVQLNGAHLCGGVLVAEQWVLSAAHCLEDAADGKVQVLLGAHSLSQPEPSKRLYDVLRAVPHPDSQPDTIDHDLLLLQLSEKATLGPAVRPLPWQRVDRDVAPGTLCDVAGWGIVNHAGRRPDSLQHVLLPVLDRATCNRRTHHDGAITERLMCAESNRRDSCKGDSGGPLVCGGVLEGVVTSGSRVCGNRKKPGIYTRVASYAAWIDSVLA
protein,measurement,value
"recombinant MASP-1 (CCP1-CCP2-SP) fragment (enzyme, part only; not given: tags; R504Q status unclear) chain, part: GNECPELQPPVHGKIEPSQAKYFFKDQVLVSCDTGYKVLKDNVEMDTFQIECLKDGTWSNKIPTCKIVDCRAPGELEHGLITFSTRNNLTTYKSEIKYSCQEPYYKMLNNNTGIYTCSAQGVWMNKVLGRSLPTCLPVCGLPKFSRKLMARIFNGRPAQKGTTPWIAMLSHLNGQPFCGGSLLGSSWIVTAAHCLHQSLDPKDPTLRDSDLLSPSDFKIILGKHWRLRSDENEQHLGVKHTTLHPKYDPNTFENDVALVELLESPVLNAFVMPICLPEGPQQEGAMVIVSGWGKQFLQRFPETLMEIEIPIVDHSTCQKAYAPLKKKVTRDMICAGEKEGGKDACSGDSGGPMVTLNRERGQWYLVGTVSWGDDCGKKDRYGVYSYIHHNKDWIQRVTGVRN","cleavage of pro-factor D substrate, Western blot",only full length MASP-3 (lane 2) and the MASP-1 CCP1-CCP2-SP) fragment (lane 5) cleaved ST-pro-factor D-His6
